Source: US20240043563A1

What was measured:
[1] = molecular target: cynomolgus monkey MASP-2 of cynomolgus monkey serum (cynomolgus monkey); test: cell-based or functional assay
[2] = molecular target: Fc-hMASP-2A-CCS (human) [IgG part: P01857]; test: ELISA according to Example 5, plate coated with Fc-hMASP-2A-CCS
Fc-hMASP-2A-CCS (human) [IgG part: P01857], sequence (P01857 other isoform, or with tags, fused parts or gaps limits assumed, form in doubt): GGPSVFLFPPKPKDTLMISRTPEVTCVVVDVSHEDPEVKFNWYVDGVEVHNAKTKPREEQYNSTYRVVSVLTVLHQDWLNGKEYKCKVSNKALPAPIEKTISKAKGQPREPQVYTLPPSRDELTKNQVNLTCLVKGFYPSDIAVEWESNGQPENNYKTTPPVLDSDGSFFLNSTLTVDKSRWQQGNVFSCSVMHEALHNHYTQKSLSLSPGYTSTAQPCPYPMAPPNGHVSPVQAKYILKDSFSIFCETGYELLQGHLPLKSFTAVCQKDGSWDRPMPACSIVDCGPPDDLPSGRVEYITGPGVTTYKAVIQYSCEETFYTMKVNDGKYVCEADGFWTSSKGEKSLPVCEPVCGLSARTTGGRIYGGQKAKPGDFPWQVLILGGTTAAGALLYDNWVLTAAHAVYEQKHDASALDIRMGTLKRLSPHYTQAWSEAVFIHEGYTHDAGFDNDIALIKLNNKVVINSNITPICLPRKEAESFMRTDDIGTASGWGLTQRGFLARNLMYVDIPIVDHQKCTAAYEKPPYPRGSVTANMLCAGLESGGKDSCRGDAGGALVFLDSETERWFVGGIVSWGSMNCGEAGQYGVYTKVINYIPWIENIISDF

IC50 of inhibition of MASP-2-catalyzed C4 cleavage in 90% cynomolgus monkey serum [1]: 94 nM
EC50 [2]: 0.227 nM
Substance: Narsoplimab (antibody)
